According to US20260055182A1 (CIS BIOPHARMA, published 2026):

T1: CD20 on HEK293 cells (human, UniProt P11836 1-297)
T1 construct: whole, on cells; Positive control target for the Rituximab biosimilar; also called clone 0038
T1 sequence (looked up): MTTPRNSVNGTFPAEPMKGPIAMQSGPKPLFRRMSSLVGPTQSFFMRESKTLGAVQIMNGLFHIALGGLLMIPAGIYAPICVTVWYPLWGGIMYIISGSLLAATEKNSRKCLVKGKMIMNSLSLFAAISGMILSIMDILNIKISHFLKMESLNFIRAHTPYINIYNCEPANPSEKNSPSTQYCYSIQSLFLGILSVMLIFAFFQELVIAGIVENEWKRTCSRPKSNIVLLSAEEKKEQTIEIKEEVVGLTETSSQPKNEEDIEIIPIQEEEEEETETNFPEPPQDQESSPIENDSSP

T2: human FcyRIIA/CD32a (H167) (human, UniProt P12318 36-218)
T2 construct: Bought protein, reversibly immobilised for SPR; also called human CD32a (H167)
T2 sequence (looked up): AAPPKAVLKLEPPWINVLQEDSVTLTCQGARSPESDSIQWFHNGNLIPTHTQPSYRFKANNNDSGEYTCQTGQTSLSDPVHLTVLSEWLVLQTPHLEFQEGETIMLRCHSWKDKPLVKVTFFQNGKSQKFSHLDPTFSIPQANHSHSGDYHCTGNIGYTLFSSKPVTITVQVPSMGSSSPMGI


Columns and labels:
[1] = target: T3, L1-CAM recombinant protein (His Tag), human (human, UniProt P32004 20-1120); assay: SPR (Biacore 8K); L1-CAM immobilised on CM5 chip, antibody as analyte
T3 construct: Bought protein; also called CD171; human L1-CAM; not shown: His tag

[2] = target: T3, L1-CAM recombinant protein (His Tag), …; assay: GCI (Creoptix WAVEdelta); antibody captured on protein A/G, L1-CAM as analyte, 1:1 model
[3] = target: T3, L1-CAM recombinant protein (His Tag), …; assay: SPR (Biacore 8K) as in Example 6, new batch of L1-CAM on the chip
Method: (§1) In the SPR experiment, antigen is immobilized on sensor chip and solutions containing antibody at various concentrations are flown over the antigen. real time measurement of kinetics parameters is performed, including their on/off rates (ka and kd). Based thereon, binding affinity constant KD is determined.

[4] = target: T3, L1-CAM recombinant protein (His Tag), …; assay: ELISA, human L1-CAM coated at 2 µg/ml
[5] = target: T3, L1-CAM recombinant protein (His Tag), …; assay: ELISA, human L1-CAM coated at 2 µg/ml; first of two values in the cell; first of two values in the cell
[6] = target: T3, L1-CAM recombinant protein (His Tag), …; assay: SPR (Biacore 8K); L1-CAM immobilised on CM5 chip, antibody as analyte; remark: listed apart in the source
Method: as §1

[7] = target: T3, L1-CAM recombinant protein (His Tag), …; assay: ELISA, human L1-CAM coated at 2 µg/ml; second of two values in the cell; second of two values in the cell
EGFR on HEK293 cells = target: T4, EGFR on HEK293 cells (human, UniProt P00533 25-1210); assay: cell microarray confirmation screen, negative control vector; cells of LV40 under EGFR are blank
T4 construct: whole, on cells; also called hEGFR
Method: (§2) Vectors encoding all interactions identified in the library screen, plus control vectors encoding CD20 (positive control) and EGFR (transfection and negative control), were arrayed and expressed in HEK293 cells on new slides. Confirmation screen slides and analyses were carried out as for the library screen either after cell fixation (n=2) or in the absence of fixation (n=1). […] Binding to target-expressing cells and non-transfected cells was again assessed by fluorescence imaging.

[8] = target: T5, human FcyRIIIA/CD16a (V176) (human, UniProt P08637 17-208); assay: SPR (Biacore 8K+), receptor reversibly immobilised, antibody as analyte; table token '-' at the 120th table, row 12, column 3
T5 construct: Bought protein, reversibly immobilised for SPR; also called human CD16a (V176)
Method: (§3) Effect on interaction with Fc receptor was analyzed by SPR [Instrument: Biacore T200 (C1q and FcRn) and 8K+ for (FcγR)]. Analysis temperature: 25° C., sample compartment: 12° C., Sensor chips: CM3 (C1q) and C1 (FcγR and FcRn).

CD20 on HEK293 cells = target: T1, CD20 on HEK293 cells; assay: cell microarray confirmation screen, control vector; cells of LV40 under CD20 are blank
Method: as §2

human FcyRI/CD64 [9] = target: T6, human FcyRI/CD64 (human, UniProt P12314 16-288, limits assumed); assay: SPR (Biacore 8K+), receptor reversibly immobilised, antibody as analyte
T6 construct: Bought protein, reversibly immobilised for SPR; also called human CD64
Method: as §3
(§4) Concentration range was adjusted to optimal window depending on results of qualitative analysis. The study was conducted by Biaffin GmbH & Co KG (Bielefeld, Germany).

[10] = target: T2, human FcyRIIA/CD32a (H167); assay: SPR (Biacore 8K+), receptor reversibly immobilised, antibody as analyte; table token '-' at the 120th table, row 10, column 3
Method: as §3

human FcRn / FCGRT&B2M [11] = target: T7, human FcRn / FCGRT&B2M (human, UniProt P55899 24-297; P61769 21-119); assay: SPR (Biacore T200), pH 6.0, FcRn reversibly immobilised, antibody as analyte
T7 construct: Bought protein, reversibly immobilised for SPR at pH 6.0; also called neonatal receptor
Method: as §3, §4

[12] = target: human C1q purified protein (human, UniProt P02745 23-245; P02746 28-253; P02747 29-245); assay: SPR (Biacore T200), C1q reversibly immobilised, antibody as analyte; table token '-' at the 120th table, row 16, column 3
Method: as §3

human FcyRI/CD64 [13] = target: T6, human FcyRI/CD64; assay: SPR; KD of LV40 over KD of Rituximab (control)
Method: as §3, §4

human FcRn / FCGRT&B2M [14] = target: T7, human FcRn / FCGRT&B2M; assay: SPR; KD of LV40 over KD of Rituximab (control)
Method: as §3, §4

[15] = target: T3, L1-CAM recombinant protein (His Tag), …; assay: ELISA, human L1-CAM coated at 2 µg/ml; second of two values in the cell
[16] = target: T3, L1-CAM recombinant protein (His Tag), …; assay: ELISA, human L1-CAM coated at 2 µg/ml; first of two values in the cell

T3 sequence (P32004 20-1120 limits assumed): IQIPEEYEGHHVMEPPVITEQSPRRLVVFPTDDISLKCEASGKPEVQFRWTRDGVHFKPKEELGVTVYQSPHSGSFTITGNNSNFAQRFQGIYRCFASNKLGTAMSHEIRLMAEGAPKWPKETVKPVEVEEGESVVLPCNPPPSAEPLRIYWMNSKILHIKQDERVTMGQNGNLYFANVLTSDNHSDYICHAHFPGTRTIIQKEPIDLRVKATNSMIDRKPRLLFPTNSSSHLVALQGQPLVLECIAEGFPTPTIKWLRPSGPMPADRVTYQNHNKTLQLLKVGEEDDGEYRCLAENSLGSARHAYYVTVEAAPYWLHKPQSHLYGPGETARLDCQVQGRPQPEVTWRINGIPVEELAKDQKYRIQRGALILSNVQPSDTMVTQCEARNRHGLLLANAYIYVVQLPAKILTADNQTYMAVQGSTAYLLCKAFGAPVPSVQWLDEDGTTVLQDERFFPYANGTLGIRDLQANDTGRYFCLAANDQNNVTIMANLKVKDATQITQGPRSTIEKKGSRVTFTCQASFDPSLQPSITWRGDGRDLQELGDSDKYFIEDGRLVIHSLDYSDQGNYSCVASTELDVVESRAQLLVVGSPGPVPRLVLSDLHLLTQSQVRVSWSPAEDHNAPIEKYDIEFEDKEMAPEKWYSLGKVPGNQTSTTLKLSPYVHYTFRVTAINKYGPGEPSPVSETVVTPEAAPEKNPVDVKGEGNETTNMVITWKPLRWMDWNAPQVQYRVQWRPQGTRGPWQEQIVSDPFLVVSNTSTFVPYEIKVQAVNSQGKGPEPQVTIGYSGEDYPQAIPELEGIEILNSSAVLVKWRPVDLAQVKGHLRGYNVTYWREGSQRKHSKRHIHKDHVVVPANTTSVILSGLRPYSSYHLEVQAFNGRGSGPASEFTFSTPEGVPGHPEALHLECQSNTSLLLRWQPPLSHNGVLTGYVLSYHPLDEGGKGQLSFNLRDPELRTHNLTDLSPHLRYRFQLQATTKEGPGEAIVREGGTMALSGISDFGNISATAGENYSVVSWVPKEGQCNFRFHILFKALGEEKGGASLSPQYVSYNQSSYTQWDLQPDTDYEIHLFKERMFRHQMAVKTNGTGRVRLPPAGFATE
T7 sequence (P55899 24-297 limits assumed, chain 1 of 2): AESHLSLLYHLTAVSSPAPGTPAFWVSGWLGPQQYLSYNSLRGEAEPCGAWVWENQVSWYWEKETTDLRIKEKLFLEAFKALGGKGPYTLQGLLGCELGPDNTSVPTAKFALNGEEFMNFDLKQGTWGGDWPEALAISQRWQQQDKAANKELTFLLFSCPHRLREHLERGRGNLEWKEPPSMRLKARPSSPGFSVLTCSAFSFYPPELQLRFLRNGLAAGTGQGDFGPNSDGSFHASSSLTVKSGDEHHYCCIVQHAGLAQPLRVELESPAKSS
T7 sequence (P61769 21-119 limits assumed, chain 2 of 2): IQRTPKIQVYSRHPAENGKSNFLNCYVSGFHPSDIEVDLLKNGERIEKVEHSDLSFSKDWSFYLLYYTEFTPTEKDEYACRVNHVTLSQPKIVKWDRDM
T6 sequence (P12314 16-288 limits assumed): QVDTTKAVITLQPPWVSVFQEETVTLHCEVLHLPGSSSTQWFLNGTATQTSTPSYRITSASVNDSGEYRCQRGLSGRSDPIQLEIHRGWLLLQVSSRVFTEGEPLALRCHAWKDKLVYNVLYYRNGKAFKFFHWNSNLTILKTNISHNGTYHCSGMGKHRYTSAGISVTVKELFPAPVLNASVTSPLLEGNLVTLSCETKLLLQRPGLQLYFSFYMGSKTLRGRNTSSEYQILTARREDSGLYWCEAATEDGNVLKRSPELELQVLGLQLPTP
Chain of human C1q purified protein (P02745 23-245, chain 1 of 3): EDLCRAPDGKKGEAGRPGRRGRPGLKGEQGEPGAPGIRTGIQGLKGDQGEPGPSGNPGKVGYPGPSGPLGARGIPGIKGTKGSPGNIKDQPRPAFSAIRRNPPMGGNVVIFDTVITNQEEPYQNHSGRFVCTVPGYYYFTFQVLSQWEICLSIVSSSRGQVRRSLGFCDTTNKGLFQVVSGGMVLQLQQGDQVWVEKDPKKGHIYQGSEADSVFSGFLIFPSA
Chain of human C1q purified protein (P02746 28-253, chain 2 of 3): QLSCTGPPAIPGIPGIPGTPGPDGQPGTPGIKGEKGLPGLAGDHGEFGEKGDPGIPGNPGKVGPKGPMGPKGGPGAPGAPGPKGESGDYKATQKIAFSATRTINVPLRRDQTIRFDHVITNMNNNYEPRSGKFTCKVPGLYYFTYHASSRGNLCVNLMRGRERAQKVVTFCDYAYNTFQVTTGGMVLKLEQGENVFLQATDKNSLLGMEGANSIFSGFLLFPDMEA
Chain of human C1q purified protein (P02747 29-245, chain 3 of 3): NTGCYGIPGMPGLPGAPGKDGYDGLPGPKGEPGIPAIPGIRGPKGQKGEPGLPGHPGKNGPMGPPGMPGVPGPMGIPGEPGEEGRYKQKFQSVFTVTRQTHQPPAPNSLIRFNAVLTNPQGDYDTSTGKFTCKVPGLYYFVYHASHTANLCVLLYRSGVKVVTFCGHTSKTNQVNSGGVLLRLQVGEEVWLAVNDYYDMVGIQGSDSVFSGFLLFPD
T5 sequence (P08637 17-208 F176V limits assumed): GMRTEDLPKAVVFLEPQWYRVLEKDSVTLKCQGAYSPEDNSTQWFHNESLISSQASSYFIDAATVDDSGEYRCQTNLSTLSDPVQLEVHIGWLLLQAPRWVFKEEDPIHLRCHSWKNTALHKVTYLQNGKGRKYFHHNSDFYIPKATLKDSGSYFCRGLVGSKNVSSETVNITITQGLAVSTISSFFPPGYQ

Binder | Kd [1] [nM] | koff [1] [s⁻¹] | kon [1] [M⁻¹ s⁻¹] | EC50 [4] [µg/mL] | Kd [6] [nM] | koff [6] [s⁻¹] | kon [6] [M⁻¹ s⁻¹] | also measured
CE7-variant7-AG (antibody, human IgG1, kappa, L234A L235A, N297A, CE7-1-2-VHB (L234A L235A P331S N297A) + CE7-1-NL1-VLA, aglycosylated human IgG1 kappa; also called CE7-varant7-AG; huCE7 variant 7AG) heavy: QVQLVQSGAEVKKPGASVKVSCKASGYTFTGYWMHWVRQAPGQGLEWIGEINPSNGRTNYNERFQGRVTLTVDKSISTAYMELSRLRSDDTAVYYCARDYYGTSYNFDYWGQGTLVTVSSASTKGPSVFPLAPSSKSTSGGTAALGCLVKDYFPEPVTVSWNSGALTSGVHTFPAVLQSSGLYSLSSVVTVPSSSLGTQTYICNVNHKPSNTKVDKKVEPKSCDKTHTCPPCPAPEAAGGPSVFLFPPKPKDTLMISRTPEVTCVVVDVSHEDPEVKFNWYVDGVEVHNAKTKPREEQYASTYRVVSVLTVLHQDWLNGKEYKCKVSNKALPASIEKTISKAKGQPREPQVYTLPPSREEMTKNQVSLTCLVKGFYPSDIAVEWESNGQPENNYKTTPPVLDSDGSFFLYSKLTVDKSRWQQGNVFSCSVMHEALHNHYTQKSLSLSPGK light: DIQMTQSPSSLSASVGDRVTITCKANEDINNRLAWYQQKPGKAPKLLISGATNLVTGVPSRFSGSGSGKDYTLTISSLQPEDFATYYCQQYWSTPFTFGQGTKLEIKRTVAAPSVFIFPPSDEQLKSGTASVVCLLNNFYPREAKVQWKVDNALQSGNSQESVTEQDSKDSTYSLSSTLTLSKADYEKHKVYACEVTHQGLSSPVTKSFNRGEC | < 0.00971 | < 1e-05 | 1.03e+06 | 0.0258 | – | – | – | Kd [2]: ~4 nM; Kd [3]: 0.0238 nM; koff [3]: 3.53e-05 s⁻¹; kon [3]: 1.48e+06 M⁻¹ s⁻¹
CE7-variant7 (antibody, also called CE7-12-VHB-1NL1-VLA; humanized variant 7) heavy: QVQLVQSGAEVKKPGASVKVSCKASGYTFTGYWMHWVRQAPGQGLEWIGEINPSNGRTNYNERFQGRVTLTVDKSISTAYMELSRLRSDDTAVYYCARDYYGTSYNFDYWGQGTLVTVSSASTKGPSVFPLAPSSKSTSGGTAALGCLVKDYFPEPVTVSWNSGALTSGVHTFPAVLQSSGLYSLSSVVTVPSSSLGTQTYICNVNHKPSNTKVDKKVEPKSCDKTHTCPPCPAPEAAGGPSVFLFPPKPKDTLMISRTPEVTCVVVDVSHEDPEVKFNWYVDGVEVHNAKTKPREEQYNSTYRVVSVLTVLHQDWLNGKEYKCKVSNKALPASIEKTISKAKGQPREPQVYTLPPSREEMTKNQVSLTCLVKGFYPSDIAVEWESNGQPENNYKTTPPVLDSDGSFFLYSKLTVDKSRWQQGNVFSCSVMHEALHNHYTQKSLSLSPGK light: DIQMTQSPSSLSASVGDRVTITCKANEDINNRLAWYQQKPGKAPKLLISGATNLVTGVPSRFSGSGSGKDYTLTISSLQPEDFATYYCQQYWSTPFTFGQGTKLEIKRTVAAPSVFIFPPSDEQLKSGTASVVCLLNNFYPREAKVQWKVDNALQSGNSQESVTEQDSKDSTYSLSSTLTLSKADYEKHKVYACEVTHQGLSSPVTKSFNRGEC | – | – | – | – | 0.000896 | 5.51e-07 | 615000 | EC50 [5]: 0.00958 µg/mL; EC50 [7]: 0.0327 µg/mL
CE7-variant26 (antibody, V domains shown, CE7-1-2-VHD + CE7-1-NL1-VLB; human IgG1 kappa, L234A L235A P331S N297A (aglycosylated); also called humanized variant 26) VH: QVQLVQSGAEVKKPGASVKVSCKASGYTFTGYWMHWVRQAPGQGLEWMGEINPSNGRTNYNEKFQGRVTLTVDKSISTAYMELSRLRSDDTAVYYCARDYYGTSYNFDYWGQGTLVTVSS VL: DIQMTQSPSSLSASVGDRVTITCRANEDINNRLAWYQQKPGKAPKLLISGATNLVTGVPSRFSGSGSGKDYTLTISSLQPEDFATYYCQQYWSTPFTFGQGTKLEIKR | – | – | – | 0.0127 | 0.000186 | 1.65e-07 | 891000 | –
CE7-variant28 (antibody, V domains shown, CE7-1-2-VHD + CE7-1-NL1-VLD; human IgG1 kappa, L234A L235A P331S N297A (aglycosylated); also called humanized variant 28) VH: QVQLVQSGAEVKKPGASVKVSCKASGYTFTGYWMHWVRQAPGQGLEWMGEINPSNGRTNYNEKFQGRVTLTVDKSISTAYMELSRLRSDDTAVYYCARDYYGTSYNFDYWGQGTLVTVSS VL: DIQMTQSPSSLSASVGDRVTITCRASQGINNRLAWYQQKPGKAPKLLISGASNLVSGVPSRFSGSGSGKDYTLTISSLQPEDFATYYCQQYWSTPFTFGQGTKLEIKR | – | – | – | 0.0701 | 0.046 | 3.62e-05 | 787000 | –
huCE7 LV40 (antibody, human IgG1, kappa, L234A L235A, N297A, Variant 7AG (IgG1, N297A L234A L235A P331S) with HC WH33F, GH55A, TH307P and LC NL31A, WL92Y; also called huCE7 variant LV40; huCE7-variant40) heavy: QVQLVQSGAEVKKPGASVKVSCKASGYTFTGYFMHWVRQAPGQGLEWIGEINPSNARTNYNERFQGRVTLTVDKSISTAYMELSRLRSDDTAVYYCARDYYGTSYNFDYWGQGTLVTVSSASTKGPSVFPLAPSSKSTSGGTAALGCLVKDYFPEPVTVSWNSGALTSGVHTFPAVLQSSGLYSLSSVVTVPSSSLGTQTYICNVNHKPSNTKVDKKVEPKSCDKTHTCPPCPAPEAAGGPSVFLFPPKPKDTLMISRTPEVTCVVVDVSHEDPEVKFNWYVDGVEVHNAKTKPREEQYASTYRVVSVLPVLHQDWLNGKEYKCKVSNKALPASIEKTISKAKGQPREPQVYTLPPSREEMTKNQVSLTCLVKGFYPSDIAVEWESNGQPENNYKTTPPVLDSDGSFFLYSKLTVDKSRWQQGNVFSCSVMHEALHNHYTQKSLSLSPGK light: DIQMTQSPSSLSASVGDRVTITCKANEDINARLAWYQQKPGKAPKLLISGATNLVTGVPSRFSGSGSGKDYTLTISSLQPEDFATYYCQQYYSTPFTFGQGTKLEIKRTVAAPSVFIFPPSDEQLKSGTASVVCLLNNFYPREAKVQWKVDNALQSGNSQESVTEQDSKDSTYSLSSTLTLSKADYEKHKVYACEVTHQGLSSPVTKSFNRGEC | – | – | – | – | – | – | – | binding result (EGFR on HEK293 cells): no binding (tested: 20 µg/mL); binding result [8]: no binding; binding result (CD20 on HEK293 cells): no binding (tested: 20 µg/mL); Kd (human FcyRI/CD64 [9]): 15.8 nM; Kd [3]: 0.0644 nM; koff [3]: 0.000472 s⁻¹; kon [3]: 7.32e+06 M⁻¹ s⁻¹; binding result [10]: no binding; Kd (human FcRn / FCGRT&B2M [11]): 459 nM; binding result [12]: no binding; ratio KD (KD sample / KD control) (human FcyRI/CD64 [13]): 389; ratio KD (KD sample / KD control) (human FcRn / FCGRT&B2M [14]): 1.2
chimeric cHCE7 (antibody, V domains shown, Control antibody; also called chimeric HCE7; CE7 chimeric antibody) VH: QVQLQQPGAELVKPGASVKLSCKASGYTFTGYWMHWVKQRPGHGLEWIGEINPSNGRTNYNERFKSKATLTVDKSSTTAFMQLSGLTSEDSAVYFCARDYYGTSYNFDYWGQGTTLTVSS VL: DIQMTQSSSSFSVSLGDRVTITCKANEDINNRLAWYQQTPGNSPRLLISGATNLVTGVPSRFSGSGSGKDYTLTITSLQAEDFATYYCQQYWSTPFTFGSGTELEIK | 0.0519 | 4.39e-05 | 845000 | – | – | – | – | EC50 [15]: 0.0232 µg/mL; EC50 [16]: 0.00663 µg/mL
Deglycosylated cHCE7 (antibody, V domains shown, deglycosylated (so in the source); site and method not stated for this sample, also called cHCE7 degly; cHCE7 deglycosylated) VH: QVQLQQPGAELVKPGASVKLSCKASGYTFTGYWMHWVKQRPGHGLEWIGEINPSNGRTNYNERFKSKATLTVDKSSTTAFMQLSGLTSEDSAVYFCARDYYGTSYNFDYWGQGTTLTVSS VL: DIQMTQSSSSFSVSLGDRVTITCKANEDINNRLAWYQQTPGNSPRLLISGATNLVTGVPSRFSGSGSGKDYTLTITSLQAEDFATYYCQQYWSTPFTFGSGTELEIK | 0.12 | 9.59e-05 | 806000 | 0.0131 | – | – | – | Kd [2]: ~4 nM
